Legend:
[1] = target: AP2 clathrin adaptor complex (in COS7 cells); experiment: cell-based or functional assay
[2] = target: T1, α-adaptin subunit of AP2 (rat) (rat, UniProt P58197); experiment: co-IP with anti-ADAM10, α-adaptin blot; rat acute hippocampal slices, 10 µM, 30 min; competitor ADAM10 (Fig. 1B)
T1 construct: Detected by Western blot as a read-out of the whole AP2 complex

[3] = target: T1, α-adaptin subunit of AP2 (rat); experiment: co-IP with anti-ADAM10; rat primary hippocampal neurons, 1 µM, 30 min; competitor ADAM10 (Fig. 1D)

T1 sequence (P58197 whole entry): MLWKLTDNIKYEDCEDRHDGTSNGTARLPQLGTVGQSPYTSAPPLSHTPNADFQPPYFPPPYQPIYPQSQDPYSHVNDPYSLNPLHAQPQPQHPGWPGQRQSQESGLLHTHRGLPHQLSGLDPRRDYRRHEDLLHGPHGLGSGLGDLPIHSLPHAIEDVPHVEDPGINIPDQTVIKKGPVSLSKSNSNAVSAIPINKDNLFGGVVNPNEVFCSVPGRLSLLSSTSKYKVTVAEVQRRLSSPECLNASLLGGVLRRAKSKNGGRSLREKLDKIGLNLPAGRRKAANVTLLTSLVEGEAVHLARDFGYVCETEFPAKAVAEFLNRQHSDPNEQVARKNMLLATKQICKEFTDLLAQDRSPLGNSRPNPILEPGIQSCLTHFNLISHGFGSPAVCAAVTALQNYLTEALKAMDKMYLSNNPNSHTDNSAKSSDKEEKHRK

YGRKKRRQRRRGGSGQPPEQEPRG [inPEP3]
internalization index of TacADAM10-RAR (fluorescence-based antibody uptake, COS7 cells, 1 µM, 30 min) [1]: 1.3%

YGRKKRRQRRRGGSGLPPEQEPRL [inPEP2]
internalization index of TacADAM10-RAR (fluorescence-based antibody uptake, COS7 cells, 1 µM, 30 min) [1]: -1.84%

YGRKKRRQRRRGGSGQPPRQRPRG [PEP3]
internalization index of TacADAM10-RAR (fluorescence-based antibody uptake, COS7 cells, 1 µM, 30 min) [1]: -12.8% | PEP/inPEP ratio of α-adaptin co-immunoprecipitated with ADAM10 (OD) [2]: 37.4% | PEP/inPEP ratio of α-adaptin co-immunoprecipitated with ADAM10 (OD) [3]: 10.8%

YGRKKRRQRRRGGSGLPPRQRPRL [PEP2]
internalization index of TacADAM10-RAR (fluorescence-based antibody uptake, COS7 cells, 1 µM, 30 min) [1]: -10.9% | PEP/inPEP ratio of α-adaptin co-immunoprecipitated with ADAM10 (OD) [2]: 41.6% | PEP/inPEP ratio of α-adaptin co-immunoprecipitated with ADAM10 (OD) [3]: 33.9%

— patent EP3727588B1 (UNIVERSITA' DEGLI STUDI DI MILANO, dated 2019)
